Reference: patent US20090209022A1 (AstraZeneca / MedImmune, published 2009)

Molecular target: the molecule itself
Test: X-ray crystallography, partial model and electron density map

B1: H. influenzae pyrH UMP kinase (HI-1065), SeMet labelled, expressed from pSM145 (enzyme)
chain: GQPIYKRILLKLSGEALQGEDGLGIDPAILDRMAVEIKELVEMGVEVSVVLGGGNLFRGAKLAKAGMNRVVGDHMGMLATVMNGLAMRDSLFRADVNAKLMSAFQLNGICDTYNWSEAIKMLREKRVVIFSAGTGNPFFTTDSTACLRGIEIEADVVLKATKVDGVYDCDPAKNPDAKLYKNLSYAEVIDKELKVMDLSAFTLARDHGMPIRVFNMGKPGALRQVVTGTEEGTTIC
modifications: all methionines substituted with seleno-methionine (SeMet) in the crystallised protein
notes: Homohexamer (trimer of dimers); The crystal asymmetric unit holds eight chains: one hexamer and one dimer that gives a hexamer by crystallographic symmetry; The crystal also holds GTP (modelled as GDP) and phosphate
B1: binds.
